Results taken from the nanobody polyreactivity screen of Harvey et al. (2022).

Assay: yeast display, Sf9 membrane polyspecificity reagent, FACS + sequencing; frameworks hold sequencing errors
Outline: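 Genes from sorted yeast were amplified by colony PCR, read by MiSeq 2 × 250 sequencing and filtered on CDR length. These cells carried a synthetic nanobody library in Saccharomyces cerevisiae BJ5465 and were sorted by FACS into low and high (top ~1%) gates on anti-HA and streptavidin fluorescence. Polyreactivity is labelled according to the gate of origin.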

Sequence | polyreactivity (PSR sort gate)
QVQLVESGGGLVQAGGSLRLSCAASGFNFGGYPMGWYRQAPGKERELVADISKRGGSTFYADSVKGRFTISRDNAKNTVYLQMNSLKPEDTAVYYCATRFFYPYWGVYEYYYWGQGTQVTVSS | high polyreactivity
QVQLVESGGGLVQAGGSLRLSCAASGNTFPVYAMGWYRKASGKERELVATITSGGSTNYADSVKGRFTFSRDNAKNTVYLQMNSLKPEDTAVYYCARRAVYSKRRYDYWGHGTQVTVSS | low polyreactivity
QVQLVESGGGIVQAGGSLRLSCAASGSIFSYNAMVWSRQAPGKQREFVAAIDGSDGSTYYADSVKGRFTISRDNAKNTVYLQMYSLKPEDTAVYSCAATDYDTYRSSWYDYWGQGTQVTVSS | low polyreactivity
QVQLVESGGGLVQAGGSLRLSCAASGITFRWYAMGWYRQAPGKERELVAAISSSGGSTYYADSVKGRFTISRDNAKNTVYLQMNSLKPEVTAVYYCAAYTSYASDYWGQGTQVTVSS | high polyreactivity
EEELVESGGGLVQAGGSLRLSCAASGSTFVSNAMGWYRQAPGKERELVAAISSSGGSTYYADSVKGRFTISRDNAKNTVYLQMNSLKPEDTAVYYCVDYYIGYTHNYNYWGQGTQVTVSS | low polyreactivity
QVQLVESGGGLVQAGGSLRLSCAASGIIFTYAMGWYRQAPGKERELVAAIDWRGGRTYYADTVKGRFTISRDNAKNTVYLEMNSLKPEDTAVYYCAARLPGGTYYWGQGTQVTVSS | high polyreactivity
QVQLVESGGGLVQAGGSHRLSCAAYGYTIPFYTMGWYRQAPGKERDLVAAINSGGSTYYADSVKGRFTISRDNAKNTVYLQMNTLKPEDTAVYYCAVEGGFRVRYQAQYRYYYWGQGTQVIVSS | high polyreactivity
QVQLVESGGGLVQAGGSLRLSCAASGFTIRWYTMGWYRQAPGKERELVAAITSGGGTYYADSVKGRFTISRDNAKNTVYLQMNILKPEDTAVYYCAARTLSVARRRPYYYWGQGTQVTGSS | high polyreactivity
QVQLVESGGGLVQAGGSLRLSCAASGITIRYYTMGWYRQAPGKERELVASISWSGTSTHYADSVKGRFTISRDNAKNTVYLQMNSLKPEDTAVYYCAATITSLAGGYRNGYTSYYWGQGTQVTVSS | high polyreactivity
QVQLVESGGGLVQAGGSLRLSCAASGLTFYSNAMRWYRQAPGKEREVVARISTGGSTYADSVKGRFTISRDNAKKTVYLQMNSLKPQDTEVYYCAKLPPRGIDDEYWGQGTQVTVSS | low polyreactivity
QVQLVESGGGLVQAGGSLRLSCAASASTFGAYAMGWYRQAPGKERELVAAITESGDNTYYADSVKGRFTISRDNAKNTVYLQMNSLKPEDTAVFYCAADDGYSTYEYWGQGTQVTVSS | low polyreactivity
QVQLVESGGGLVQAGGSLRLSCAASGRIFFVNAMGWYRQAPGKERELVAAISRGGSTNYADSVKGRFTISRDNAKNTVYLQMNSLKPEDTEVYYCNADGSSYWYPVPLDGGDYWGQGTQVTVSS | low polyreactivity
QVQLVESGGGLVQAGGSLRLSCSASGSTFNVNAMGWYRQAPGKERELVAAIRTSGGSTYYADSVKGRFTISRDNAKNTVYLQMNSLKQEDTAVYYCNARVGSSSSRYYYWGQGTQVTVSS | low polyreactivity
QVQLVESGGGLVQAGGSLRLSCAASGFTFYPYAMGWYRQAPGKERELVAAIRISGGSTYYADSVKGRFTISRDTAKNTVYLQMNSLKPEDTAVYYCAAKYPYYSSYAYGYWGQGTQVTVSS | high polyreactivity
QVQLVESGGGLVQAGGSLRISCAASGSIFQFNAMGWSRQAPGKERELVASISASGGSTYYADSVKGRFTISRDNAKNTVYLQMNSLKPEDTAVYYCAADFIRSWFIWRGSFDYWGLGTQVTVSS | low polyreactivity
QVQLVESGGGLVQAGGSLRLSCAASGLTFKRYAMGWYRQAPGTEREFVAAISAGGASTHYADSVKGRFTISRDNAKNTVYLQMNSLKPEDTAVYYCATDYRTFRPSFGYWGQGTQVTVSS | low polyreactivity
QVQLVESGGGLVQAGGSLRLSCAASGRTFPYYAMGWYRQAPGKERELVATITYSGGSTYYADSVKGRFTISRDNAKNTVYLQMNSLKPEDTAVYYCAADTGEYSAQYDYWGQGTQVTVSS | high polyreactivity
QVQLVESGGGLVQAGGSLRLSCAASGRIFIRYAMGWYRQAPGKERELVAGITSGGDTYYADSVKGRFTISRDNAKNTVYLQMNSLKPEDTAVYYCARVRYGRMDYWGQGTQVTVSS | high polyreactivity
QVQLVESGGGLVQAGGSLRLSCAASGFNFRYNAMGWYRQAPGKERELVAGISGGGTHYADSVKGRFTISRDNAKNTVYLQMNSLKPEDTAVYYCARRGGYRRNTNFYYWGQGTQVTVSS | high polyreactivity
QVQLVESGGGLVQAGGSLRLTCAASGRIIGFNAMGWYRQAPGKERELVASIRTTGGTTYYADSVKGRFTISSDNAKNTVYLQMNSLKPEDTAVYYCAARRYPPRMDYWGQGTQVTVSS | high polyreactivity
QVQLVESGGGLVQAGGSLRLSCAASGFTLFGYAMGWYRQAPGKERELVAAISKDGGSTYYADSVKGRFTISRDNAKNTVYLQMNSLKPEDTAVYSCAARVKRPQTGYDRRYGYWGQGTQVTVSS | high polyreactivity

Sequence | polyreactivity (PSR sort gate)
QVQLVESGGGLVQAGGSLRLSCAASGIIFGGYDMGWYRQAPGKERELVAAISWSGGSTYYADSVKGRFTISRDNAKNTVYLQMNSLKPEDTAVYYCNAVGRRNVDSSLNDYWGQGTQVTVSS | low polyreactivity
QVQLVESGGGLVQEGGSLRLSCAASGSIFGYYAMGWYRQAPGKERELVAAISRSGGSTYYADSVKGRFTISRDNAKNTVSLQMNSLKPEDTAFYYCAADDYPYGNYYWGKGTQVTVSS | high polyreactivity
QVQLVESGGGLVQAGGSLRLSCAASGFIFAVNAMGWYRQAPGKERELVAAISGRGGRTYYADSVKGRFTISRDYAKNTVYLQMNSLKPEDTAVYYCAARSYQYSYSFYWGQGTQVTVSS | high polyreactivity
QVQLVESGGGLVQAGGSLRLSCAASGSIFRYNAMGWYRQAPGKERELVAGITWGGGRTYYADSVKGRFTISRDNAKNTVYLQMNSLKPEDTAVYYCAAVIARPAVQAYLVTKYDYWGQGTQVTVSS | high polyreactivity
QVQLVESGGGLVQAGGSLRLSSAASGITFKYYVMGWYRQAPGKEREFVAAISWGGGSTYYADSVKGRFTISRDNAKITVYLQMNSLKPEDTAVYYCATSHGLYTRWYDYWGQGTQVTVSS | high polyreactivity
QVQRVESGGGLVQAGGSLRLSCAASGSTFSIYAMGLYRQEPGKERELVAAISFSDDSTYYADSVKGRFTISRDNAKNTVYLQMNSLNPEDTEVYYCAAEGYWGEPFDYDGALEYWGQGTQVTVSS | high polyreactivity
QVQLVESGGGLVQAGGSLRLSCAASGFTFDYYAMGWYRPAPGKERELVAAISWRGTTTYYADSVKGRFTISRDNEKNTVYLQMNSLKPEDTAVYYCAADSLFGHYDYWGHGTQVTVSS | low polyreactivity
QVQLVDSGGGLVQAGGSLRLSCPASGFIFAKYAKGWSRQAPGKERELGAAITSGGSTNYADSVTGRFTISRDNAKNTVYLQMHSLKPEDTAVYYCNRGFDWWYRYRHYDYWGQGTQVTVSS | low polyreactivity
QVQLQERAAWCRRAGSLRLSCAASGNISDYYFMGWYRQAPGKERELVAAIAPGSNTYYADSVKGRFTISRDNAKNTVYLQMNSLKPEDTAVCFCAANSTQYSWFDYWGQGTQVPVSS | low polyreactivity
QVQLEESGGGLVQAGGSLRLSCAASGSIFEYYAMGWYRPAPGKERELVAAISSGGPTYYADSVKGRFTISRDNAKNTVYLQMNSLKPEDTAVYYCNADLWYPDYAYWGQGTQLTVSS | low polyreactivity
QVQLVESGGGLVQAGGSLRLSCAASGRIFTTYAMGWYRQAPGKERELVAAISRSGGSTYYADSVKGRFTISRDNAKNSVYLQMNSLKPEDTAVYYCAAVPTSNSFRSSFYYWGQGTQVTVSS | high polyreactivity
QVQLVESGGGLVQAGGSLRLSCAASGSNFRANAMGWYRQATGKERELVAAISKSGGSTYYADSVKGRFRISRDNAKNTVYLQMNSLKPEDTGVYYCAARTTYLYGMYYWGQGTQVTVSS | low polyreactivity
QVQLVESGGGLVQAGGSLRLICAASGRTLSGYAMGWYRQAPGKERELVAAISSDGRTYYADSVKGRFTISRDNAKNTVYLQMNSLKPEDTAVYYCAKVRRGSYGYWGQGTQVTVSS | high polyreactivity
QVQLVESGGGLVQAGGSLRLSCAASGGTFQLNAMGWYRQAPGKERELVATITTGGSTYADSVKGRFTISRDNAKNTVYLQMNSLKPEDTAVYYCNKTCFLVKLDYWGQGTQVTVSS | low polyreactivity
QVQLVESGGGLVQAGGSLRLSCAASGFISPSYAMGWYRQAPGKERELVAAIRSSDGSTYYADSVKGRFTISRDNAKNTVYLQMNSLKPEDTAVYYCAAGGSYYRDDYWGQGTQVTVSS | low polyreactivity
QVQLVESGGGLVQAGGSLRLSCAASGFIFQVYAMGWYRQAPGKERELVASISSSGGSTYYADSVKGRFTISRDNAKNTVYLQMNSLKPEDTAVYYCAVEQRYRYWYRYRYKFLLDSDYWGQGTQVTVSS | high polyreactivity
QVQLVESGGGLVQAGGSLRLSCAASGSTIGDNAMGWYRQAPGIERELGASMSWSGASTYYADSVKGRFTISRDNAKNTVYLQMNCLKPDDTAVYYCGVYYSYYSHLYHMLFYYWGQGTQVTVSS | low polyreactivity
QVQLVESGGGLVQAGGSLRLSCAASGRIFWTYAMGWYRPAPGKERELVAAITWRGGSTSYADSVKGRFTISRDNAKNTVYLQMNSLKPEDTAVYYCNARYSGYSPWGNDYWGQGTQVTVSS | high polyreactivity
QVQLVESGGGLVQAGGSLRLSCADSGRIFGTSAMGWYRQAPGKERELVATISYSSGRTYYADSVKGRFTISRDNAKNTVYLQMNSLKPEDTAVYYCARRRRSGSRQYYYWGQGTQVTVSS | high polyreactivity
QVQLVESGGGLVQAGGSLRLSCAASGSIFYYNAMGWYRQAPGQERELVAGINYSGGSTYYADSVKGRFTISRDNAKNTVYLQMNSLIPEDTADYYCAARPRYLNARKYYYWGLGTQVTVSS | high polyreactivity
